In patent US20180251563A1 (SUBDOMAIN, published 2018):
Where a chain is given by its changes, count along the chain named.

Legend:
CTLA4-Fc = target: T1, CTLA4-Fc (UniProt P16410 36-161, limits assumed); assay: phage ELISA, target-Fc against non-specific control
T1 construct: purified recombinant target-Fc protein; not shown: Fc
Experimental: (§1) Selections were also performed using F1, F2, F3, C1 & C2 trinucleotide phosphoramidite libraries. In most cases, libraries were pooled prior to use in selection. By combining equal volumes of the individual libraries, Pool F (libraries F1, F2 and F3) and Pool C (libraries C1 and C2) were generated. These libraries were used in selections for DBDpp binders to 4-1BB/CD137 as well as a larger panel of purified recombinant “target”-Fc proteins, including CD47, CTLA4, DR5, KIR, LAG3, OX40, PD1, PD-L1 and TIM3. (Many of these targets are considered immuno-regulatory factors (Pardoll et al., Nat. Rev. Cancer 12:252-264 (2012)). After incubation of the target with the pools of DBDpp phage libraries, bound phage-target complexes were captured and separated from unbound phage with protein A beads (target proteins were Fc fusions). After three rounds of selection, rescued phage clones were screened by ELISA for binding to the selected target.
(§2) For each target, approximately 90 DBDpp phage clones were screened by ELISA for binding to the target protein and as well as a non-specific control (e.g., IgG1-Fc). […] In some instances, for the ELISA screening plate in which the majority of DBDpp clones were positive, the entire plate was sequenced.

CD47-Fc = target: T2, CD47-Fc (UniProt Q08722 19-139); assay: as above
T2 construct: purified recombinant target-Fc protein; not shown: Fc
T2 sequence (Q08722 19-139 limits assumed): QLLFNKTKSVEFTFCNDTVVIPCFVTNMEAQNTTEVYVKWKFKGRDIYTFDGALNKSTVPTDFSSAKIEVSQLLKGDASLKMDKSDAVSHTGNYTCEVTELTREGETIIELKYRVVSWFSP
Experimental: as §1, §2

cynomolgus PD-L1 = target: T3, cynomolgus PD-L1 (cynomolgus (Macaca fascicularis), UniProt G7PSE7 19-238); assay: ELISA, FLAG-tagged pb04 on immobilised Cynomolgus PDL1-Fc
T3 construct: also called PD-L1 of cynomolgus (Macaca fascicularis)
T3 sequence (G7PSE7 entry or part of it): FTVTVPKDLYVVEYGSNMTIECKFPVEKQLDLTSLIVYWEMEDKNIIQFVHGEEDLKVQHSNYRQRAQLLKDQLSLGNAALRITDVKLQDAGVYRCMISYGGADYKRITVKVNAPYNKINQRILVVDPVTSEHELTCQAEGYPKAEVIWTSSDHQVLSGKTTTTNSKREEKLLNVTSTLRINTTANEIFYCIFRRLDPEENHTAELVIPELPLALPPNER
Experimental: (§3) FIG. 16A establishes that a soluble DBDpp selected for binding to human PD-L1 (pb04 in this nonlimiting embodiment), can also bind PD-L1 of cynomolgus (Macaca fascicularis), as assessed by ELISA. Human PD-L1 or cynomolgus PD-L1 was immobilized in separate wells of an ELISA plate. Soluble DBDpp (FLAG tagged) directed against PD-L1 was incubated in the respective plates to assess the degree of binding with PD-L1 from each species. As shown, pb04 DBDpp binds to both human and cynomolgus PD-L1.

human PD-L1 = human PD-L1 (human, UniProt Q9NZQ7 19-238, limits assumed); assay: ELISA, FLAG-tagged pb04 on immobilised Human PDL1-Fc
human PD-L1, sequence (Q9NZQ7 19-238 limits assumed): as the sequence (G7PSE7 entry or part of it) above, with T33A, S34A, N62S, Q68R, R82Q, L173F, A185T, I192T, L215H counted along it
Experimental: as §3

[1] = target: PD-L1 (target of Example 25) (UniProt Q9NZQ7 19-238, limits assumed); assay: library selection; assay not described
PD-L1 (target of Example 25), sequence (Q9NZQ7 19-238 limits assumed): as the sequence (G7PSE7 entry or part of it) above, with T33A, S34A, N62S, Q68R, R82Q, L173F, A185T, I192T, L215H counted along it

PD-L1-Fc [2] = target: T4, PD-L1-Fc (UniProt Q9NZQ7 19-238); assay: ELISA on PD-L1-Fc, in vitro translated DBDpp-6xHIS heated 2 minutes at 25-100 C and serially diluted, detection with anti-6xHIS-HRP
T4 construct: purified recombinant target-Fc protein; also called FC-PD-L1; not shown: Fc
T4 sequence (Q9NZQ7 19-238 limits assumed): as the sequence (G7PSE7 entry or part of it) above, with T33A, S34A, N62S, Q68R, R82Q, L173F, A185T, I192T, L215H counted along it
Experimental: DBDpp-6×HIS fusions (pb04 and pb06) and scFv-6×HIS fusions were expressed through in vitro transcription and translation reactions (NEB, PureExpress). Samples were diluted in ELISA blocking buffer (Thermo Fisher) 30 fold. Individual samples were subsequently incubated at either 25° C., 40° C., 55° C., 70° C. or 100° C. for 2 minutes and then rapidly returned to room temperature. The temperature increase, followed by rapid cooling can cause denaturation of the protein or other breakdown of the three-dimensional structure of proteins that reduce target interaction and/or binding. The ability of proteins to bind with a ligand, such as a target tumor antigen, after being exposed to denaturing conditions indicates either enhanced stability during exposure to elevated temperature or an ability to re-fold and maintain function after exposure. […]
The heat-exposed samples were serially diluted in ELISA buffer and measured for binding to PD-L1-Fc in ELISA. Bound proteins were detected with HRP-conjugated rabbit anti-6×HIS polyclonal antibody (Abcam). […] Since this particular scFv is not configured to bind PD-L1, this function as a negative control, and as expected, no binding is detected for any of the DR5 scFv, regardless of the temperatures they were exposed to. […]

TIM3-Fc = target: T5, TIM3-Fc (UniProt Q8TDQ0 22-200); assay: phage ELISA, target-Fc against non-specific control
T5 construct: purified recombinant target-Fc protein; not shown: Fc
Experimental: as §1, §2

PD1-Fc = target: T6, PD1-Fc (UniProt Q15116 25-167); assay: as above
T6 construct: purified recombinant target-Fc protein; not shown: Fc
T6 sequence (Q15116 25-167 limits assumed): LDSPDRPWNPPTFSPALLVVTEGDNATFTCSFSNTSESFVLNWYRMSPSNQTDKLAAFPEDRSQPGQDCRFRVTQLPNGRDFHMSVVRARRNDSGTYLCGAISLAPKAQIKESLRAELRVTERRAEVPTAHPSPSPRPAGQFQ
Experimental: as §1, §2

PD-L1-Fc [3] = target: T4, PD-L1-Fc; assay: ELISA, purified FLAG-tagged protein on PD-L1-Fc coated wells
[4] = target: T7, recombinant, biotinylated, Human 4-1BB/TNFRSF9/CD137-Fc (human, UniProt Q07011 24-186, biotinylated (F2NNK selection)); assay: phage ELISA, target-Fc against non-specific control (IgG Fc)
T7 construct: also called 4-1BB/CD137; not shown: Fc
T7 sequence (Q07011 24-186 limits assumed): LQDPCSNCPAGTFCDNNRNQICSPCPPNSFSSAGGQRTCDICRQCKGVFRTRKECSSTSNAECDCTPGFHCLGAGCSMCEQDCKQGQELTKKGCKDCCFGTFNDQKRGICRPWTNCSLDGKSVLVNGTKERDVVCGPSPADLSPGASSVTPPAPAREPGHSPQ
Excerpt: The F2NNK DBD library was used in five rounds of selection against recombinant, biotinylated, Human 4-1BB/TNFRSF9/CD137-Fc.

[5] = target: T8, Fc-fusion protein comprising the extracellular domain of CD123 fused to human IgG1 Fc (human, UniProt P26951 19-305); assay: flow cytometry, transiently transfected 293T cells incubated with CD123-Fc, detection with PE anti-human IgG; CAR expression by anti-FLAG
T8 construct: also called Fc-CD123; not shown: human IgG1 Fc
T8 sequence: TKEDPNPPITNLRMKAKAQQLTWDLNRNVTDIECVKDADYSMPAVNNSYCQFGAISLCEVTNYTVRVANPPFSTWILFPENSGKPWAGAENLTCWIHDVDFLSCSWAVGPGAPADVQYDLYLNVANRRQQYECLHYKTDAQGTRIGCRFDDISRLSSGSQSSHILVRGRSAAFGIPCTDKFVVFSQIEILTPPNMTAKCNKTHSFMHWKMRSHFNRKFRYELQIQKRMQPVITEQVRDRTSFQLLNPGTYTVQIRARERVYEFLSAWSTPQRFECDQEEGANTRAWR
Experimental: 293T cells were transiently transfected with pcDNA3 expression vectors encoding DBDpp containing CARs using (see, e.g., FIG. 5B) Lipofectamine 3000 (Life Technologies). After 24 hours, cells were collected using CellStripper™. Cells were assessed for CAR expression using a fluorescent-labeled anti-FLAG antibody. DBDpp containing CARs binding to CD123 was measured by incubating cells with a Fc-fusion protein comprising the extracellular domain of CD123 fused to human IgG1 Fc in cell culture media at 37° for 30 minutes, washing, and then detection with a PE anti-human IgG antibody. Both CD123 binding and CAR expression (FLAG Tag) were assayed by flow cytometry. Data are shown in FIG. 17, and each data point indicates the average FLAG expression and CD123-binding for each of the DBDpp-CARs from multiple experiments.

T1 sequence (P16410 36-161 limits assumed): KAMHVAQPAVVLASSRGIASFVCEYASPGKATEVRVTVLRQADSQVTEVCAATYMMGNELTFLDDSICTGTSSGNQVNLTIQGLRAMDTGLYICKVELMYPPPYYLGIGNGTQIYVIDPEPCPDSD

B1: SEQ ID NO 25 (designed binder)
chain: MGSWHEFHDRLQAIHERLYALGGSEAELAAFEKEIAAFESELQAYKGKGNPEVESLRIAAAHIRQVLQAYRHN
ELISA ratio (target to background) (CTLA4-Fc): 2.95 ratio

B2: SEQ ID NO 23 (designed binder)
chain: MGSWTEFVGRLAAIEFRLWALGGSEAELAWFEAHIAFFEDYLQWYKGKGNPEVEALREEAGAIMEELKAYRHN
ELISA ratio (target to background) (CD47-Fc): 8.23 ratio

B3: FLAG-pb04 (designed binder)
chain: MGSWYEFTVRLEAIHERLKALGGSEAELAAFEKEIAAFESELQAYKGKGNPEVEILRDDAAFIRRFLQAYRHN
notes: expressed and purified from E. coli; also called N-terminal FLAG tag fusion of pb04; soluble DBDpp (FLAG tagged) directed against PD-L1; not shown: N-terminal FLAG tag
EC50 (cynomolgus PD-L1): 42.1 nM
EC50 (human PD-L1): 31.4 nM

B4: SEQ ID NO 184 (designed binder)
chain: B3 chain with T8D, V9D, E12N, E16D, K19Q, I55D
notes: also called pb06
binding result [1]: binds

B5: SEQ ID NO 186 (designed binder)
chain: B3 chain with Y5T, T8E, V9Q, E16N, K19Q, I55E, D58N, R65H
binding result [1]: binds

B6: pb06 DBDpp-6xHIS fusion (designed binder)
chain: B3 chain with T8D, V9D, E12N, E16D, K19Q, I55D
notes: made by in vitro transcription and translation; not shown: 6xHIS tag
binding result (PD-L1-Fc [2]): binds

B7: SEQ ID NO 183 (designed binder)
chain: B3 chain with Y5K, T8D, V9D, E12N, H15K, E16A, K19Q, I55D
binding result [1]: binds

B8: SEQ ID NO 185 (designed binder)
chain: B3 chain with Y5N, T8K, V9N, E12D, E16K, K19N, I55N, R65H
binding result [1]: binds

B9: SEQ ID NO 181 (designed binder)
chain: B3 chain with Y5N, T8H, V9D, E12N, E16A, K19H, I55N
binding result [1]: binds

B10: SEQ ID NO 45 (designed binder)
chain: MGSWVVFKVDLATIKYILEALGGSEAELAEFEGEIAGFEYSLQFYKGKGNPEVEALRKEAAAIRDELQAYRHN
ELISA ratio (target to background) (TIM3-Fc): 5.79 ratio

B11: SEQ ID NO 21 (designed binder)
chain: MGSWTEFTYRLSAIEWRLWALGGSEAELAWFEQKIAFFEDFLQYYKGKGNPEVEALKHEAGAILNELMAYRHN
ELISA ratio (target to background) (CD47-Fc): 12.5 ratio

B12: SEQ ID NO 48 (designed binder)
chain: MGSWYAFKDYLADIKGWLEALGGSEAELAFFEIFIARFELELQAYKGKGNPEVEALRKEAAAIRDELQAYRHN
ELISA ratio (target to background) (PD1-Fc): 3.29 ratio

B13: SEQ ID NO 47 (designed binder)
chain: MGSWVMFKWLLADIKSHLEALGGSEAELAFFEGFIAAFETHLQVYKGKGNPEVEALRKEAAAIRDELQAYRHN
ELISA ratio (target to background) (PD1-Fc): 8.13 ratio

B14: FLAG-α3D (other)
chain: MGSWAEFKQRLAAIKTRLQALGGSEAELAAFEKEIAAFESELQAYKGKGNPEVEALRKEAAAIRDELQAYRHN
notes: expressed and purified from E. coli; also called N-terminal FLAG tag fusion of a3D; alpha3D; not shown: N-terminal FLAG tag
binding result (PD-L1-Fc [3]): no binding (tested: about 1000 nM)

B15: bb10 (designed binder)
chain: B14 chain with Q19E, E32L, K33G, A36W, S40M, Q43A, R57G, K58R, D65M
notes: F2NNK library clone
ELISA ratio (target to background) [4]: 5.27 ratio

B16: SEQ ID NO 20 (designed binder)
chain: MGSWYEFDLRLHAIYDRLVALGGSEAELAAFEKEIAAFESELQAYKGKGNPEVEILRDNAAYIRQMLQAYRHN
ELISA ratio (target to background) (CD47-Fc): 14.1 ratio

B17: SEQ ID NO 22 (designed binder)
chain: B16 chain with Y5A, L9H, Y15R, D16E, V19H, D58G, Q65A, M66L
ELISA ratio (target to background) (CD47-Fc): 11.7 ratio

B18: SEQ ID NO 24 (designed binder)
chain: MGSWTEFYSRLEAIWVRLQALGGSEAELAMFEDRIAHFEWFLQQYKGKGNPEVEALHEEAIAIRKELAAYRHN
ELISA ratio (target to background) (CD47-Fc): 4.58 ratio

B19: cg06 DBDpp-CAR (other)
chain: MGSWDEFGRRLYAIEWRLYALGGSEAELAAFEKEIAAFESELQAYKGKGNPEVEKLREIAAVIRSNLQAYRHN
notes: expressed on Jurkat NFAT reporter cells; not shown: rest of the CAR (FLAG tag, linker, transmembrane and intracellular domains) not specified
binding result [5]: binds

B20: SEQ ID NO 46 (designed binder)
chain: MGSWTIFKEWLAFIKTDLEALGGSEAELAFFEGWIASFEMELQKYKGKGNPEVEALRKEAAAIRDELQAYRHN
ELISA ratio (target to background) (PD1-Fc): 17.1 ratio
